Tests used:
[1] = target: SDE-BBLF1-Flag (Epstein-Barr virus)
[2] = target: BBLF1-Flag (Epstein-Barr virus)

B1: BGLF2-GFP (natural protein)
chain: MASAANSSREQLRKFLNKECLWVLSDASTPQMKVYTATTAVSAVYVPQIAGPPKTYMNVTLIVLKPKKKPTYVTVYINGTLATVARPEVLFTKAVQGPHSLTLMYFGVFSDAVGEAVPVEIRGNPVVTCTDLTTAHVFTTSTAVKTVEELQDITPSEIIPLGRGGAWYAEGALYMFFVNMDMLMCCPNMPTFPSLTHFINLLTRCDNGECVTCYGAGAHVNILRGWTEDDSPGTSGTCPCLLPCTALNNDYVPITGHRALLGLMFKPEDAPFVVGLRFNPPKMHPDMSRVLQGVLANGKEVPCTAQPWTLLRFSDLYSRAMLYNCQVLKRQVLHSY
recruitment of BGLF2-GFP to the TGN (colocalisation with TGN46) in cotransfected A7 cells, confocal microscopy (% of transfected cells) [1]: 70
recruitment of BGLF2-GFP to the TGN (colocalisation with TGN46) in cotransfected A7 cells, confocal microscopy (% of transfected cells) [2]: 70
